The text below walks through data of article PMC7641127, “MCL1 binds and negatively regulates the transcriptional function of tumor suppressor p73” (Cell Death & Disease, 2020).

The assay addresses T1, recombinant MCL1 (human, UniProt Q07820 1-350).
T1 construct: MCL1, human; Uniformly 15N-labelled for NMR; also called 15N MCL1; source: E. coli BL21 (DE3), purified (nickel chromatography, gel filtration)
Kind of assay: fluorescence polarisation; competitive FPA: 50 nM recombinant MCL1, 10 nM F-BAK, titration of unlabeled p73 peptide or p73DBD, 1× PBS pH 7.4. As to conditions: both partners purified.

No end group written: not given here.

T1 sequence (Q07820 whole entry): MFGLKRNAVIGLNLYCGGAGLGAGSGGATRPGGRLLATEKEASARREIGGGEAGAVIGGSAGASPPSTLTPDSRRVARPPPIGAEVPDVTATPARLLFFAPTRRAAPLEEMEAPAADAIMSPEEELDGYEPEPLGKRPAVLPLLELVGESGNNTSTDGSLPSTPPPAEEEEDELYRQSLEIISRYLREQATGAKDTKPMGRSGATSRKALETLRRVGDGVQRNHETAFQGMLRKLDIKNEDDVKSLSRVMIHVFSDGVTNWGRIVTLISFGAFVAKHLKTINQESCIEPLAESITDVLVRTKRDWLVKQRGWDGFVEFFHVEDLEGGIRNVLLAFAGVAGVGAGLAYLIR

The IC50 is the concentration that inhibits the measured activity by half. With PQPLVDSYRQQQQLLQR [p73TD-derived peptide α2], the IC50 was > 10 µM.

On to DEDTYYLQVRG-NH2 [p73TD-derived peptide β1], for which the IC50 is > 10 µM.
